# Like-named read-outs stand apart in the source and are kept apart here. Residues, ends and D or L forms follow the SMILES beside them. No end group written: not given here. *: point of attachment. Palmitoyl = CCCCCCCCCCCCCCCC(=O)*
# What was measured:
# acetylcholine receptor [1] = target: T1, acetylcholine receptor (Homo sapiens, UniProt P02708); experiment: SPR (Biacore) affinity of shortened Espep2 peptides, Examples 1-2; type: binding; conditions: for higher affinity compared to Synake: SPR, FIG. 1
# Procedure: To construct an optimized shortened library from the previous Espep2 peptide, assessment was made of the affinity of peptides having sequences sequentially removed from the N- and C-terminals. Initially, surface plasmon resonance (SPR) experiments were conducted using a biosensor chip (Biacore3000, Biacore AB, Uppsala, Sweden). Selected acetylcholine receptor proteins were immobilized on a CM5 chip (Biacore) using EDC/NHS and observed for association and dissociation for up to 500 seconds. The observation conditions were set forth as follows: running buffer 20 mM Tris (pH 7.4), rate 30 ul/min, concentration 20 μM (peptide), and the results are depicted in FIG. 1.
# To identify the crucial sequences in the shortened peptides, alanine scanning was conducted. Wild-type (WT) Espep2-6mer (RKSLLR) and Espep2-5mer (KSLLR) peptides were synthesized with each amino acid sequentially substituted with alanine (Ala, A), and their affinity was measured using the same method as in Example 1. The measurements are depicted in FIG. 2 after normalization to WT.
# Moreover, among the six amino acids in the RKSLLR sequence, R residues at the N and C terminals are crucial.
# [2] = test system: dermal fibroblast cells isolated from human skin; conditions: 100 nM to 100 μM, 24 hours
# Procedure: The optimized shortened peptides according to the present disclosure were assayed for cytotoxicity. In this regard, the cytotoxicity was assessed by the MTT [(3-(4,5-dimethylthiazol-2-yl)-2,5-diphenyltetrazolium bromide] method using dermal fibroblast cells isolated from human skin. The pre-cultured cells were seeded at a concentration of 1×10^5 cells/mL in a 24-well plate and cultured for 18 hours. Subsequently, the medium was removed and the diluted sample was added to the medium free of FBS and incubated for 24 hours, after which the medium was removed and MTT solution was added at a concentration of 1 μg/mL and reacted for 3 hours. Unreacted MTT was removed, and DMSO 100 μL was added to dissolve the formed formazan, and the absorbance at 540 nm was read on an ELISA reader.
# acetylcholine receptor [3] = target: T1, acetylcholine receptor; experiment: SPR (Biacore) affinity of shortened Espep2 peptides, Examples 1-2; type: binding; conditions: FIG. 3
# acetylcholine receptor [4] = target: T1, acetylcholine receptor; experiment: SPR binding affinity (RU) of optimized 5mer/6mer/7mer peptides, Examples 6-7; conditions: for Binding affinity (RU): peptides at 10 μM; for Binding affinity: peptides tested at 10 μM
# How it was run: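 SPR, peptides at 10 μM; read-out = response units (RU). Sequences drawn from top- or bottom-frequency amino acid combinations, 5mer/6mer-1/6mer-2 libraries.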
# [5] = target: T2, Acetylcholine receptor-overexpressing TE671 cells (Homo sapiens, UniProt P02708); experiment: Calcium imaging (Fura-2-AM) of nicotine response, acetylcholine receptor inhibition; type: cell-based; conditions: for inhibition at 1 µM: TE-671; for concentration at which acetylcholine receptors were inhibited: TE671 cells, nicotine 400 uM, calcium imaging
# T2 construct: endogenous in cells; host or cells: TE671 cells
# Procedure: Acetylcholine receptor-overexpressing TE671 cells were cultured at 37° C. in DMEM medium supplemented with 10% FBS and 1% P/S under 5% CO2. After the TE671 cells were sufficiently grown for 4 days, the cells were detached using trypsin and the cell culture was plated in an amount of 1 ml at a density of 2×10^4 cells/well into 12-well cell culture plate with an 18 mm cover-slip lined therein, and cultured for 4 days.
# The cover-slip on which the cells had grown was transferred to a fresh 12-well cell culture plate, and 997 μl of HBSS buffer and 3 μl of Fura-2-AM were added and gently mixed, followed by incubation at 37° C., 5% CO2 for 15 minutes. After incubation, the remaining Fura-2-AM was removed by washing 3-4 times with 1 ml of HBSS buffer, and an additional 1 ml was added. The cover-slip with the grown cells was placed in a chamber, and 500 μl of HBSS buffer was dispensed. The final concentration of nicotine was adjusted to 400 µM to observe the calcium imaging reaction. Then, while keeping the nicotine concentration fixed, the concentration of the sample was adjusted to find the inhibiting concentration.
# The inhibitory ability of the Palmitate-6mer-1-43 and Palmitate-5mer-73 peptides on the acetylcholine receptor was examined in the same manner as in Example 6. Additionally, the inhibitory ability (IC50) of the optimized short peptides and the palmitate-modified peptides according to the present disclosure against acetylcholine receptor was compared with Synake and is depicted in FIG. 16.
# [6] = SPR, Resonance Units, 6mer-2 Bottom sequence
# [7] = SPR, Resonance Units, 5mer Bottom sequence (bottom combinations)
# [8] = SPR, 6mer-1 Bottom sequence (Table 11)
# T2 sequence (P07510 23-517): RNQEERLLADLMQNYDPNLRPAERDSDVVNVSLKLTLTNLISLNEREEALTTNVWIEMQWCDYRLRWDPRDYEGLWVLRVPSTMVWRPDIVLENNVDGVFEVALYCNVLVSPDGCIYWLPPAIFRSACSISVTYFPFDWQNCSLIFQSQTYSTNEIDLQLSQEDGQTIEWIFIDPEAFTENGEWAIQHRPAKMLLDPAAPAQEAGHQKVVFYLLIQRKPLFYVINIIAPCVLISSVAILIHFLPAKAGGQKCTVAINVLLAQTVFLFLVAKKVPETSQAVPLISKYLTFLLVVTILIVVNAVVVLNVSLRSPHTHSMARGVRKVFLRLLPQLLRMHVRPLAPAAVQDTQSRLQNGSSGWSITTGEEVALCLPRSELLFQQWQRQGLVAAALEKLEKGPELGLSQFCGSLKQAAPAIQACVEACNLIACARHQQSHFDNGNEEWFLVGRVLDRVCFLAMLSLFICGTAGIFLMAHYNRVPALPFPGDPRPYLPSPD
# T2 sequence (P11230 24-501, further chain): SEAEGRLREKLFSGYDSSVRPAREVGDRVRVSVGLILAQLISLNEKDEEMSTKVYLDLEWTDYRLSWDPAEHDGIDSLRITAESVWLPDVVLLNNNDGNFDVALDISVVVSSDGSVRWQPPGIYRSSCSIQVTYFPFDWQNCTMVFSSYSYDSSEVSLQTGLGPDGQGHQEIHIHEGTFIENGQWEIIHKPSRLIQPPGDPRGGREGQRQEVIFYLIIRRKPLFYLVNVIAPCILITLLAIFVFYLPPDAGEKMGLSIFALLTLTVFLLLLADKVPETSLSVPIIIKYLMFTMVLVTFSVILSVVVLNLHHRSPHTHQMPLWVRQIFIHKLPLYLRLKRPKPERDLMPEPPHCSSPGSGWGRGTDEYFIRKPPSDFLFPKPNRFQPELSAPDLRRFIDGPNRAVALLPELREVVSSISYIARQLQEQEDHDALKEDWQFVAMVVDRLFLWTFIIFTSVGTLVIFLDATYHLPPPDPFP
# T2 sequence (Q07001 22-517, further chain): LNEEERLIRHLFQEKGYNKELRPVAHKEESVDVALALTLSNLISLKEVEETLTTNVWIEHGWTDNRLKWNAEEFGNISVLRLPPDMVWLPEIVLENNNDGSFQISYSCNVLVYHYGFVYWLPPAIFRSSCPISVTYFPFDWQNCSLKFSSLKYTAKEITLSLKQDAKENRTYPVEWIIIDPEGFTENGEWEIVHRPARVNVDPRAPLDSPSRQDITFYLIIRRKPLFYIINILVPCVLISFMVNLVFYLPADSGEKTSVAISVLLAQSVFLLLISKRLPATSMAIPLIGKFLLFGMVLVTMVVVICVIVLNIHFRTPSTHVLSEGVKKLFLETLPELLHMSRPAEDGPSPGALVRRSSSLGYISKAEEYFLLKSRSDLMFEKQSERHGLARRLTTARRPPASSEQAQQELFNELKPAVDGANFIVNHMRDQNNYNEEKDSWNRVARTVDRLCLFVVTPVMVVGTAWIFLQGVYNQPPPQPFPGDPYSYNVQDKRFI
# T2 sequence (P02708 21-457): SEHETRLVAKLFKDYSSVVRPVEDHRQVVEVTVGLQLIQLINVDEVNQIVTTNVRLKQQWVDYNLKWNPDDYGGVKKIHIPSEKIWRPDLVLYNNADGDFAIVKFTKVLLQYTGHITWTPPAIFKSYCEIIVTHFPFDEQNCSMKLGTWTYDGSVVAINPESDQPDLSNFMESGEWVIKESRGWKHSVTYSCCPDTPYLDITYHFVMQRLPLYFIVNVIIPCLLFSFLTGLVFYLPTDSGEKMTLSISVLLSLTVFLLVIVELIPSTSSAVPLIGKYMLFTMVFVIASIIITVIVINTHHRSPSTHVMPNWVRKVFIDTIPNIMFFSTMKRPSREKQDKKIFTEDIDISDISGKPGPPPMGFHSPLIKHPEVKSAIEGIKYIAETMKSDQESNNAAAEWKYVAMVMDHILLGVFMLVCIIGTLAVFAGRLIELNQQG
# T1 sequence (P02708 21-457): as above
compound,measurement,setting,value
"KGRKSLLR [Espep2-8mer, KGRKSLLR]",Kd,acetylcholine receptor [1],3.1 µM
same,higher affinity compared to Synake,acetylcholine receptor [1],740 times
"RRQRR [5mer-73, RRQRR]",skin permeability,"after 8 hours, 37° C.",66.87%
same,cytotoxicity (MTT),[2],non-toxic
KSLLR [5mer-ND],binding affinity compared to Synake,acetylcholine receptor [3],higher binding affinity than Synake
same,Binding affinity (RU),acetylcholine receptor [4]; SPR,23 RU
CCCCCCCCCCCCCCCC(=O)N[C@@H](CCCNC(=N)N)C(=O)N[C@@H](CCCCN)C(=O)N[C@@H](CCCNC(=N)N)C(=O)N[C@H](C(=O)N[C@@H](CCCNC(=N)N)C(=O)N[C@@H](CCCNC(=N)N)C(=O)O)[C@@H](C)CC [Pal-6mer-1-43] (Palmitoyl-RKRIRR-OH; N-terminus and C-terminus assumed),inhibition at 1 µM,[5],100%
same,cytotoxicity (MTT),[2],non-toxic
"RKRIRR [6mer-1-43, RKRIRR]",concentration at which acetylcholine receptors were inhibited,[5],10 µM
same,cytotoxicity (MTT),[2],non-toxic
same,Kd,acetylcholine receptor [4],0.609 µM
same,Binding affinity (RU),acetylcholine receptor [4]; SPR,548 RU
same,Binding affinity,"acetylcholine receptor [4]; SPR, 6mer-1 Top sequence (top combinations)",548 Ru
"RKSLLR [Espep2-6mer, RKSLLR]",Kd,acetylcholine receptor [1],57 µM
same,higher affinity compared to Synake,acetylcholine receptor [1],40 times
same,binding affinity compared to Synake,acetylcholine receptor [3],higher affinity than that of Synake
same,RU value,acetylcholine receptor [3]; peptide 20 μM,177 RU
same,Binding affinity (RU),acetylcholine receptor [4]; SPR,35 RU
"WTWKGRKSLLR [Espep2-11mer, WTWKGRKSLLR, reference compound]",skin permeability,sampled up to 24 hours,did not permeate at all
same,concentration at which acetylcholine receptors were inhibited,[5],5 µM
same,Kd,acetylcholine receptor [1],1.2 µM
same,higher affinity compared to Synake,acetylcholine receptor [1],1916 times
RRGVRR [6mer-1-210],concentration at which acetylcholine receptors were inhibited,[5],10 µM
same,Binding affinity,"acetylcholine receptor [4]; 6mer-1 Top sequence, SPR",184 Ru
same,Binding affinity (RU),acetylcholine receptor [4]; SPR,184 RU
RKSLL [5mer-CD],binding affinity compared to Synake,acetylcholine receptor [3],slightly lower binding affinity compared to Synake
RSYSR [5mer-311],concentration at which acetylcholine receptors were inhibited,[5],10 µM
same,Binding affinity (RU),acetylcholine receptor [4]; SPR,167 RU
same,Binding affinity,"acetylcholine receptor [4]; SPR, 5mer Top sequence",167 Ru
KWRQKR [6mer-2-233],concentration at which acetylcholine receptors were inhibited,[5],10 µM
same,Binding affinity,"acetylcholine receptor [4]; SPR, Resonance Units, 6mer-2 Top sequence (Table 12)",190 Ru
same,Binding affinity (RU),acetylcholine receptor [4]; SPR,190 RU
CCCCCCCCCCCCCCCC(=O)N[C@@H](CCCNC(=N)N)C(=O)N[C@@H](CCCNC(=N)N)C(=O)N[C@@H](CCC(N)=O)C(=O)N[C@@H](CCCNC(=N)N)C(=O)N[C@@H](CCCNC(=N)N)C(=O)O [Pal-5mer-73] (Palmitoyl-RRQRR-OH; N-terminus and C-terminus assumed),inhibition at 1 µM,[5],100%
same,cytotoxicity (MTT),[2],non-toxic
RWRYKR [6mer-2-136],concentration at which acetylcholine receptors were inhibited,[5],10 µM
same,Binding affinity,"acetylcholine receptor [4]; 6mer-2 Top sequence, SPR",194 Ru
same,Binding affinity (RU),acetylcholine receptor [4]; SPR,194 RU
5mer-1143 (RATGK),Binding affinity,"acetylcholine receptor [4]; SPR, 5mer Bottom sequence",19 Ru
5mer-893 (RIKIK),Binding affinity,"acetylcholine receptor [4]; SPR, 5mer Bottom sequence",18 Ru
6mer-2-706 (KFTDRK),Binding affinity,acetylcholine receptor [4]; [6],23 Ru
6mer-2-97 (RQFYRK),Binding affinity,"acetylcholine receptor [4]; 6mer-2 Top sequence, SPR",154 Ru
5mer-5 (KLFLR),Binding affinity,"acetylcholine receptor [4]; SPR, 5mer Top sequence",54 Ru
6mer-1-1174 (RKDAIR),Binding affinity,"acetylcholine receptor [4]; SPR, Resonance Units, 6mer-1 Bottom sequence",30 Ru
5mer-202 (KWYRR),Binding affinity,"acetylcholine receptor [4]; SPR, 5mer Top sequence",65 Ru
5mer-802 (RITVR),Binding affinity,acetylcholine receptor [4]; [7],27 Ru
6mer-1-292 (RKWQTK),Binding affinity,"acetylcholine receptor [4]; 6mer-1 Top sequence, SPR",122 Ru
6mer-1-300 (RRWQQK),Binding affinity,"acetylcholine receptor [4]; 6mer-1 Top sequence, SPR",148 Ru
5mer-345 (RQQRR),Binding affinity,"acetylcholine receptor [4]; SPR, 5mer Top sequence",86 Ru
5mer-35 (RWQYK),Binding affinity,"acetylcholine receptor [4]; SPR, 5mer Top sequence",80 Ru
5mer-990 (KEEPK),Binding affinity,acetylcholine receptor [4]; [7],12 Ru
3614 (NRRQRR) [compound 3614],"Binding affinity, relative value to the RRQRR sequence","acetylcholine receptor [4]; SPR, XRRQRR-6mer and RRQRRX-6mer",113
6mer-2-669 (KNMWRK),Binding affinity,acetylcholine receptor [4]; [6],15 Ru
5mer-436 (RVFYK),Binding affinity,"acetylcholine receptor [4]; SPR, 5mer Top sequence",60 Ru
6mer-2-192 (RWFSKK),Binding affinity,"acetylcholine receptor [4]; 6mer-2 Top sequence, SPR",133 Ru
6mer-2-655 (KIWFRR),Binding affinity,acetylcholine receptor [4]; [6],31 Ru
5mer-1116 (KECFR),Binding affinity,"acetylcholine receptor [4]; SPR, 5mer Bottom sequence",24 Ru
6mer-2-616 (REPHRK),Binding affinity,acetylcholine receptor [4]; [6],26 Ru
6mer-1-891 (RKMAFR),Binding affinity,acetylcholine receptor [4]; [8],13 Ru
6mer-1-805 (KRDTMK),Binding affinity,acetylcholine receptor [4]; [8],24 Ru

# Source: patent publication US20250011363A1, “OPTIMIZED SHORTENED PEPTIDE THAT BINDS TO ACETYLCHOLINE RECEPTOR, AND USE THEREOF” (SKINMED CO., LTD., priority 2021, published 2025)
